Earlier results, collected in PMC5686428.

Target: HSV-1 glycoprotein D (soluble gD) (Herpes simplex virus type 1) (UniProt Q69091)
Experiment: not stated (cited)
Conditions: SYBR Green assay: 1-200 nM protein, DApt (dissolved in PBS, heated 95 C 3 min, cooled on ice), 30 min, read at 520 nm; assay buffer, pH and temperature not …

Chain of UniProt Q69091 (Q69091 26-331): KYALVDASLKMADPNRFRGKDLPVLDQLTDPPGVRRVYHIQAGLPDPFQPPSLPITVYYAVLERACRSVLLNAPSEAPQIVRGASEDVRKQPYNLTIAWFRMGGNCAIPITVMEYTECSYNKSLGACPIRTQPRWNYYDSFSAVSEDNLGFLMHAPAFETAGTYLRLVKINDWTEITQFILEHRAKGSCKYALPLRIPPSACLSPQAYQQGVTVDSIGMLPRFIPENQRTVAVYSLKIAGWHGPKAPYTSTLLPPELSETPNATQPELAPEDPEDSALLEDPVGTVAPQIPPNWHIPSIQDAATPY

## GGGCACGAGAGAGGUCGUCCCCAGGGGAGAACUCGUGCUCCUGG [mini-1 RNA aptamer]
  Kd: 4 nM
